Measured values from article PMC6994669.

Target: PTPδ D2-His6 F1503A (mouse)
Assay: SPR; Biacore T200, 25 °C, 10 mM Hepes-NaOH pH 7.5, 150 mM NaCl, 0.005% Tween-20; wild-type or mutant PTPδ D2-His6 amine-coupled on a CM5 chip; wild-type or mutant Liprin-α3 tSAM injected, twofold dilutions from 40 µM to 39 nM; equilibrium KD

mouse Liprin-α3 tSAM (residues 808–1114), sequence (P60469 808-1114): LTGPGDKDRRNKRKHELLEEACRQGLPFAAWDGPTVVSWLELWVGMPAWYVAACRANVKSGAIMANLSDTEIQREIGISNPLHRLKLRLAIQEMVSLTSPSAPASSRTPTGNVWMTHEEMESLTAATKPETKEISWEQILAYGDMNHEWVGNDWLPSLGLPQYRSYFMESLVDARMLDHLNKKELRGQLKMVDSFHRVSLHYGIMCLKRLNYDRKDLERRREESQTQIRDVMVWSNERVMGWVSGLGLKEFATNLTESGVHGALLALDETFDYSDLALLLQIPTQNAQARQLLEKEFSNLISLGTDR

- Kd: 8.3 µM
Substance: mouse Liprin-α3 tSAM (residues 808–1114) (from UniProt P60469 808-1114) (domain or fragment)
